Results published in patent US8097425.

What was measured:
[1] = molecular target: hybridoma 2.11; assay: competition ELISA; signal of 2.11 on plate-bound Pep2-0 (competitor) with this free peptide; low = inhibited
[2] = molecular target: hybridoma 2.03; assay: competition ELISA; signal of 2.03 on plate-bound Pep2-0 (competitor) with this free peptide; low = inhibited

Binder | Maximum Reactivity [1] | Maximum Reactivity [2]
Ac-HSLFHPEDTG-biotin [Pep1-1] | 1.48 | 0.382
Ac-SLFHPEDTGQ-biotin [Pep1-2] | 1.49 | 0.329
